Results on 20 molecules are retold here after patent publication US20250215104A1 (WALDEN BIOSCIENCES, published 2025).

Assay [1] has as its target T1, human soluble urokinase plasminogen activator receptor (hsuPAR) (human, UniProt Q03405 23-303, limits assumed).
T1 construct: also called human suPAR; rhuPAR-His
Briefly: off-rate screen of scFv clones (kdis), Octet BLI. A general note: In BLI a coated tip is dipped into the sample, and binding shifts an interference pattern.

Assay [2] addresses T2, cynomolgus soluble urokinase plasminogen activator receptor (cynomolgus suPAR) (cynomolgus, UniProt Q9GK78 23-303, limits assumed).
T2 construct: also called cynomolgus uPAR; cynoPLAUR-His
Briefly: off-rate screen of scFv clones (kdis), Octet BLI.

T2 sequence (Q9GK78 23-303 limits assumed): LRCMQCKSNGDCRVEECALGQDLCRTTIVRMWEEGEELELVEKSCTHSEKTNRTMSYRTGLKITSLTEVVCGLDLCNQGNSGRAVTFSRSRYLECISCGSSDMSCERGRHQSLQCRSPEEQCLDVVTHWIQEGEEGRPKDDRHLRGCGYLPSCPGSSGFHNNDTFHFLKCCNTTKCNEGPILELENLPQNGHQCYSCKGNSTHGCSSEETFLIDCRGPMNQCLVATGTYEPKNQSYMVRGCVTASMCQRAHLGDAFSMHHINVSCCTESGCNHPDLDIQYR
T1 sequence (Q03405 23-303 limits assumed): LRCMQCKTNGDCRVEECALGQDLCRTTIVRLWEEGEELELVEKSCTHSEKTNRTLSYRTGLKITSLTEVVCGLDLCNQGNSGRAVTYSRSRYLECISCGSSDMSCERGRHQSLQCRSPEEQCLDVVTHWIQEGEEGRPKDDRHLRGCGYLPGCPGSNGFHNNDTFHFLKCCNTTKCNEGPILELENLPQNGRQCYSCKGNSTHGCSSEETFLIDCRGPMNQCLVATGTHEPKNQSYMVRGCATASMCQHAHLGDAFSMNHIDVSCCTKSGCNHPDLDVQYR

B1: suPAR_DB04_C05 (scFv, V domains shown)
VH: QVQLVQSGAEVKKPGASVKVSCKASGHTLNSYYMHWVRQAPGQGLEWMGWIDHENGNTIYDQKFQGRVTMTRDTSTSTVYMELSSLRSEDTAVYYCARGYDVDWFVYWGQGTLVTVSS
VL: DIQMTQSPSSLSASVGDRVTITCSARSSVSYMYWYQQKPGKAPKLLIYRTSNLASGVPSRFSGSGSGTDFTLTISSLQPEDFATYYCQQYHSYPPTFGGGTKVEIK
notes: scFv clone from phage display
Usually koff stands for the first-order rate constant of dissociation. High values mean fast dissociation, low ones slow dissociation. On to B1, for which the koff came out at 0.00245 s⁻¹ in assay [1] and 0.000421 s⁻¹ in assay [2].

B2: suPAR_DB04_E04 (scFv, V domains shown)
VH: QVQLVQSGAEVKKPGASVKVSCKASGYTFTSYYVHWVRQAPGQGLEWMGWIDHENGNTIYDQKFQGRVTMTRDTSTSTVYMELSSLRSEDTAVYYCARGTDVDWFVYWGQGTLVTVSS
VL: DIQMTQSPSSLSASVGDRVTITCRARQSVSYMYWYQQKPGKAPKLLIYRTSNLASGVPSRFSGSGSGTDFTLTISSLQPEDFATYYCQQYHSYPPTFGGGTKVEIK
notes: scFv clone from phage display
Regarding B2, the koff in assay [1] was 0.00335 s⁻¹; in assay [2], 0.000451 s⁻¹.

B3: suPAR_DB04_D07 (scFv, V domains shown)
VH: QVQLVQSGAEVKKPGASVKVSCKASGYTFGSYYMHWVRQAPGQGLEWMGWIDHENGNTIYDQKFQGRVTMTRDTSTSTVYMELSSLRSEDTAVYYCARGYDVDWFVYWGQGTLVTVSS
VL: DIQMTQSPSSLSASVGDRVTITCRARQSVSYMYWYQQKPGKAPKLLIYRTSNLASGVPSRFSGSGSGTDFTLTISSLQPEDFATYYCQQYHSYPPTFGGGTKVEIK
notes: scFv clone from phage display
Turning to B3, the koff in assay [1] was 0.00217 s⁻¹; in assay [2], 0.000436 s⁻¹.

B4: suPAR_DB04_E09 (scFv, V domains shown)
VH: QVQLVQSGAEVKKPGASVKVSCKASGDTFTDYYIHWVRQAPGQGLEWMGWIDHENGSTSYDQKFQGRVTMTRDTSTSTVYMELSSLRSEDTAVYYCARGYDVDWFVYWGQGTLVTVSS
VL: DIQMTQSPSSLSASVGDRVTITCRARQSVSYMYWYQQKPGKAPKLLIYRTSNLASGVPSRFSGSGSGTDFTLTISSLQPEDFATYYCQQYHSYPPTFGGGTKVEIK
notes: scFv clone from phage display
Regarding B4, the koff worked out at 0.00598 s⁻¹ in assay [1] and 0.000446 s⁻¹ in assay [2].

B5: suPAR_DB04_D05 (scFv, V domains shown)
VH: QVQLVQSGAEVKKPGASVKVSCKASGYTFTTYYMHWVRQAPGQGLEWVGWIDPHSGGTNYAQKFQGRVTMTRDTSTSTVYMELSSLRSEDTAVYYCARGYDVDWFVYWGQGTLVTVSS
VL: DIQMTQSPSSLSASVGDRVTITCSARSSVSYMYWYQQKPGKAPKLLIYRTSNLASGVPSRFSGSGSGTDFTLTISSLQPEDFATYYCQQYHSYPPTFGGGTKVEIK
notes: scFv clone from phage display
On to B5, for which the values for the koff in assay [1] and in assay [2] were 0.004 s⁻¹ and 5.44e-05 s⁻¹, respectively.

B6: suPAR_DB04_E08 (scFv, V domains shown)
VH: QVQLVQSGAEVKKPGASVKVSCKASGYTFTGYYMHWVRQAPGQGLEWMGWIDHENGNTSYAQKFQGRVTMTRDTSTSTVYMELSSLRSEDTAVYYCARGYDVDWFVYWGQGTLVTVSS
VL: DIQMTQSPSSLSASVGDRVTITCSARSSVSYMYWYQQKPGKAPKLLIYRTSNLASGVPSRFSGSGSGTDFTLTISSLQPEDFATYYCQQYHSYPPTFGGGTKVEIK
notes: scFv clone from phage display
Take B6: the koff in assay [1] was determined as 0.00268 s⁻¹; in assay [2], 0.000149 s⁻¹.

B7: suPAR_DB04_D04 (scFv, V domains shown)
VH: QVQLVQSGAEVKKPGASVKVSCKASGYTIKDYYMHWVRQAPGQGLEWMGWIDHENGSTIYAQKFQGRVTMTRDTSTSTVYMELSSLRSEDTAVYYCARGYDVDWFVYWGQGTLVTVSS
VL: DIQMTQSPSSLSASVGDRVTITCSARSSVSYMYWYQQKPGKAPKLLIYRTSNLASGVPSRFSGSGSGTDFTLTISSLQPEDFATYYCQQYHSYPPTFGGGTKVEIK
notes: scFv clone from phage display
As to B7, the koff turned out to be 0.00188 s⁻¹ in assay [1] and 0.000184 s⁻¹ in assay [2].

B8: suPAR_DB04_C06 (scFv, V domains shown)
VH: QVQLVQSGAEVKKPGASVKVSCKASGYTFSAYYIHWVRQAPGQGLEWMGWIDHENGNTIYDQKFQGRVTMTRDTSTSTVYMELSSLRSEDTAVYYCARGNDVDWFVYWGQGTLVTVSS
VL: DIQMTQSPSSLSASVGDRVTITCSARQSVSYMYWYQQKPGKAPKLLIYRTSNLQSGVPSRFSGSGSGTDFTLTISSLQPEDFATYYCQQYHSYPPTFGGGTKVEIK
notes: scFv clone from phage display
For B8, the koff in assay [1] was determined as 0.00412 s⁻¹; in assay [2], 4.14e-05 s⁻¹.

B9: suPAR_DB04_C12 (scFv, V domains shown)
VH: QVQLVQSGAEVKKPGASVKVSCKASGHTITSYYMHWVRQAPGQGLEWMGWIDHENGSTIYAQKFQGRVTMTRDTSTSTVYMELSSLRSEDTAVYYCARGYDVDWFVYWGQGTLVTVSS
VL: DIQMTQSPSSLSASVGDRVTITCRASSSVSYMYWYQQKPGKAPKLLIYRTSNLASGVPSRFSGSGSGTDFTLTISSLQPEDFATYYCQQYHSYPPTFGGGTKVEIK
notes: scFv clone from phage display
Consider B9, for which the koff was 0.000626 s⁻¹ in assay [1] and 0.000255 s⁻¹ in assay [2].

B10: suPAR_DB04_D10 (scFv, V domains shown)
VH: QVQLVQSGAEVKKPGASVKVSCKASGYTFTSYYMHWVRQAPGQGLEWMGWIDPEGGNTSYDQKFQGRVTMTRDTSTSTVYMELSSLRSEDTAVYYCATGYDVDWFVYWGQGTLVTVSS
VL: DIQMTQSPSSLSASVGDRVTITCSARSSVSYMYWYQQKPGKAPKLLIYRTSNLASGVPSRFSGSGSGTDFTLTISSLQPEDFATYYCQQYHSYPPTFGGGTKVEIK
notes: scFv clone from phage display
With B10, the figures for the koff in assay [1] and in assay [2] were 0.005 s⁻¹ and 0.000402 s⁻¹, respectively.

B11: suPAR_DB04_E03 (scFv, V domains shown)
VH: QVQLVQSGAEVKKPGASVKVSCKASGYTFTNYYMHWVRQAPGQGLEWMGWIDHEGGSTIYAQKFQGRVTMTRDTSTSTVYMELSSLRSEDTAVYYCARGYDVDWFVYWGQGTLVTVSS
VL: DIQMTQSPSSLSASVGDRVTITCSARSSVSYMYWYQQKPGKAPKLLIYRTSNLASGVPSRFSGSGSGTDFTLTISSLQPEDFATYYCQQYHSYPPTFGGGTKVEIK
notes: scFv clone from phage display
With B11, the results for the koff in assay [1] and in assay [2] were 0.00116 s⁻¹ and 0.000224 s⁻¹, respectively.

B12: suPAR_DB04_E07 (scFv, V domains shown)
VH: QVQLVQSGAEVKKPGASVKVSCKASGDTFTSYYIHWVRQAPGQGLEWMGWIDHENGNTIYDQKFQGRVTMTRDTSTSTVYMELSSLRSEDTAVYYCARGYDVDWFVYWGQGTLVTVSS
VL: DIQMTQSPSSLSASVGDRVTITCSARSSVSYMYWYQQKPGKAPKLLIYRTSNLASGVPSRFSGSGSGTDFTLTISSLQPEDFATYYCQQYHSYPPTFGGGTKVEIK
notes: scFv clone from phage display
For the molecule B12, the koff in assay [1] stood at 0.00311 s⁻¹; in assay [2], 0.00023 s⁻¹.

B13: suPAR_DB04_C09 (scFv, V domains shown)
VH: QVQLVQSGAEVKKPGASVKVSCKASGYTFSTYYMQWVRQAPGQGLEWMGWIDPENGSTIYDQKFQGRVTMTRDTSTSTVYMELSSLRSEDTAVYYCARGYDVDWFVYWGQGTLVTVSS
VL: DIQMTQSPSSLSASVGDRVTITCSARSSVSYMYWYQQKPGKAPKLLIYRASNLASGVPSRFSGSGSGTDFTLTISSLQPEDFATYYCQQYHSYPPTFGGGTKVEIK
notes: scFv clone from phage display
B13: the koff was found to be 0.0013 s⁻¹ in assay [1] and 0.00154 s⁻¹ in assay [2].

B14: suPAR_DB04_C11 (scFv, V domains shown)
VH: QVQLVQSGAEVKKPGASVKVSCKASGYSFTDYYMHWVRQAPGQGLEWMGWIDPENGSTIYDQKFQGRVTMTRDTSTSTVYMELSSLRSEDTAVYYCARGYDVDWFVYWGQGTLVTVSS
VL: DIQMTQSPSSLSASVGDRVTITCSARSSVSYMYWYQQKPGKAPKLLIYRTSNLASGVPSRFSGSGSGTDFTLTISSLQPEDFATYYCQQYHSYPPTFGGGTKVEIK
notes: scFv clone from phage display
For B14, the koff was found to be 0.00562 s⁻¹ in assay [1] and 0.000483 s⁻¹ in assay [2].

B15: suPAR_DB04_E11 (scFv, V domains shown)
VH: QVQLVQSGAEVKKPGASVKVSCKASGYTFTNYYVHWVRQAPGQGLEWMGWIDHENGNTIYDQKFQGRVTMTRDTSTSTVYMELSSLRSEDTAVYYCARGYDVDWFVYWGQGTLVTVSS
VL: DIQMTQSPSSLSASVGDRVTITCSARQSVSYMYWYQQKPGKAPKLLIYRTSNLASGVPSRFSGSGSGTDFTLTISSLQPEDFATYYCQQYHSYPPTFGGGTKVEIK
notes: scFv clone from phage display
As for B15, the koff in assay [1] amounted to 0.00502 s⁻¹; in assay [2] it was 0.000158 s⁻¹.

B16: suPAR_DB04_D03 (scFv, V domains shown)
VH: QVQLVQSGAEVKKPGASVKVSCKASGYTFTSYYMHWVRQAPGQGLEWMGWIDPENGSTIYDQKFQGRVTMTRDTSTSTVYMELSSLRSEDTAVYYCARGYDVDWFVYWGQGTLVTVSS
VL: DIQMTQSPSSLSASVGDRVTITCRARQSVSYMYWYQQKPGKAPKLLIYRTSNLASGVPSRFSGSGSGTDFTLTISSLQPEDFATYYCQQYHSYPPTFGGGTKVEIK
notes: scFv clone from phage display
As to B16, the koff was 0.00408 s⁻¹ in assay [1] and 0.000353 s⁻¹ in assay [2].

B17: suPAR_DB04_E06 (scFv, V domains shown)
VH: QVQLVQSGAEVKKPGASVKVSCKASGYSFTSHYMHWVRQAPGQGLEWMGWIDHENGNTIYDQKFQGRVTMTRDTSTSTVYMELSSLRSEDTAVYYCARGYDVDWFVYWGQGTLVTVSS
VL: DIQMTQSPSSLSASVGDRVTITCRARSSVSYMYWYQQKPGKAPKLLIYRTSNLASGVPSRFSGSGSGTDFTLTISSLQPEDFATYYCQQYHSYPPTFGGGTKVEIK
notes: scFv clone from phage display
Turning to B17, the koff in assay [1] turned out to be 0.00564 s⁻¹; in assay [2], 0.000137 s⁻¹.

B18: suPAR_DB04_D08 (scFv, V domains shown)
VH: QVQLVQSGAEVKKPGASVKVSCKASGYTLSGYYMHWVRQAPGQGLEWMGWIDPNSGATNDAPKFQGRVTMTRDTSTSTVYMELSSLRSEDTAVYYCARGYDVDWFVYWGQGTLVTVSS
VL: DIQMTQSPSSLSASVGDRVTITCSARSSVSYMYWYQQKPGKAPKLLIYRTSNLASGVPSRFSGSGSGTDFTLTISSLQPEDFATYYCQQYHSYPPTFGGGTKVEIK
notes: scFv clone from phage display
Take B18: the values for the koff in assay [1] and in assay [2] were 0.00414 s⁻¹ and 0.000343 s⁻¹, respectively.

B19: suPAR_DB04_C07 (scFv, V domains shown)
VH: QVQLVQSGAEVKKPGASVKVSCKASGYTFTSYYMHWVRQAPGQGLEWMGWIDHSNGNTIYDQKFQGRVTMTRDTSTSTVYMELSSLRSEDTAVYYCARGDDVDWFVYWGQGTLVTVSS
VL: DIQMTQSPSSLSASVGDRVTITCSARSSVSYMYWYQQKPGKAPKLLIYRTSNLASGVPSRFSGSGSGTDFTLTISSLQPEDFATYYCQQYHSYPPTFGGGTKVEIK
notes: scFv clone from phage display
With B19, the values for the koff in assay [1] and in assay [2] were 0.0031 s⁻¹ and 0.000249 s⁻¹, respectively.

B20: suPAR_DB04_E10 (scFv, V domains shown)
VH: QVQLVQSGAEVKKPGASVKVSCKASGYTFSSYYFHWVRQAPGQGLEWMGWIDPNTGDTIYAQKFQGRVTMTRDTSTSTVYMELSSLRSEDTAVYYCARGYDVDWFVYWGQGTLVTVSS
VL: DIQMTQSPSSLSASVGDRVTITCSARSSVSYMYWYQQKPGKAPKLLIYRTSNLASGVPSRFSGSGSGTDFTLTISSLQPEDFATYYCQQYHSYPPTFGGGTKVEIK
notes: scFv clone from phage display
B20: the figures for the koff in assay [1] and in assay [2] were 0.00116 s⁻¹ and 0.000142 s⁻¹, respectively.
